Test results taken from patent US20020123091.

B1: human factor XIIa (Haematologic Technologies) (protein)
chain: IPPWEAPKEHKYKAEEHTVVLTVTGEPCHFPFQYHRQLYHKCTHKGRPGPQPWCATTPNFDQDQRWGYCLEPKKVKDHCSKHSPCQKGGTCVNMPSGPHCLCPQHLTGNHCQKEKCFEPQLLRFFHKNEIWYRTEQAAVARCQCKGPDAHCQRLASQACRTNPCLHGGRCLEVEGHRLCHCPVGYTGAFCDVDTKASCYDGRGLSYRGLARTTLSGAPCQPWASEATYRNVTAEQARNWGLGGHAFCRNPDNDIRPWCFVLNRDRLSWEYCDLAQCQTPTQAAPPTPVSPRLHVPLMPAQPAPPKPQPTTRTPPQSQTPGALPAKREQPPSLTRNGPLSCGQRLRKSLSSMTRVVGGLVALRGAHPYIAALYWGHSFCAGSLIAPCWVLTAAHCLQDRPAPEDLTVVLGQERRNHSCEPCQTLAVRSYRLHEAFSPVSYQHDLALLRLQEDADGSCALLSPYVQPVCLPSGAARPSETTLCQVAGWGHQFEGAEEYASFLQEAQVPFLSLERCSAPDVHGSSILPGMLCAGFLEGGTDACQGDSGGPLVCEDQAAERRLTLQGIISWGSGCGDRNKPGVYTDVAYYLAWIREHTVS
B2: hepatocyte growth factor activator (as present in human serum) (protein)
chain: VQLSPDLLATLPEPASPGRQACGRRHKKRTFLRPRIIGGSSSLPGSHPWLAAIYIGDSFCAGSLVHTCWVVSAAHCFSHSPPRDSVSVVLGQHFFNRTTDVTQTFGIEKYIPYTLYSVFNPSDHDLVLIRLKKKGDRCATRSQFVQPICLPEPGSTFPAGHKCQIAGWGHLDENVSGYSSSLREALVPLVADHKCSSPEVYGADISPNMLCAGYFDCKSDACQGDSGGPLACEKNGVAYLYGIISWGDGCGRLHKPGVYTRVANYVDWINDRIRPPRRLVAPS

Experiments:
PRO256 polypeptide = biological target: T1, PRO256 polypeptide
T1 chain: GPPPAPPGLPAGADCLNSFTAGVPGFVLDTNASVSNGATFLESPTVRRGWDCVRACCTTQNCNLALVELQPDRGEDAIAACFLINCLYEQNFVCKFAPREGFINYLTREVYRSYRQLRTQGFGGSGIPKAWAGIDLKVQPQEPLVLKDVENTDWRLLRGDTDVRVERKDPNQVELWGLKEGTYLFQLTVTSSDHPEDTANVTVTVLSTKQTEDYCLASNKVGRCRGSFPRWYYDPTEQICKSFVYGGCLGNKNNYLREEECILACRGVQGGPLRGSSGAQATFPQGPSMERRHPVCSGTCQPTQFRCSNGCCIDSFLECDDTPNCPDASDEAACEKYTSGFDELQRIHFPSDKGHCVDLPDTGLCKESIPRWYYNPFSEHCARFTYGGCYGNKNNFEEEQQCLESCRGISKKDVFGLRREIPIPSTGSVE

[1] = biological target: single-chain hepatocyte growth factor (scHGF)
Sequence of single-chain hepatocyte growth factor (scHGF) (P14210 whole entry): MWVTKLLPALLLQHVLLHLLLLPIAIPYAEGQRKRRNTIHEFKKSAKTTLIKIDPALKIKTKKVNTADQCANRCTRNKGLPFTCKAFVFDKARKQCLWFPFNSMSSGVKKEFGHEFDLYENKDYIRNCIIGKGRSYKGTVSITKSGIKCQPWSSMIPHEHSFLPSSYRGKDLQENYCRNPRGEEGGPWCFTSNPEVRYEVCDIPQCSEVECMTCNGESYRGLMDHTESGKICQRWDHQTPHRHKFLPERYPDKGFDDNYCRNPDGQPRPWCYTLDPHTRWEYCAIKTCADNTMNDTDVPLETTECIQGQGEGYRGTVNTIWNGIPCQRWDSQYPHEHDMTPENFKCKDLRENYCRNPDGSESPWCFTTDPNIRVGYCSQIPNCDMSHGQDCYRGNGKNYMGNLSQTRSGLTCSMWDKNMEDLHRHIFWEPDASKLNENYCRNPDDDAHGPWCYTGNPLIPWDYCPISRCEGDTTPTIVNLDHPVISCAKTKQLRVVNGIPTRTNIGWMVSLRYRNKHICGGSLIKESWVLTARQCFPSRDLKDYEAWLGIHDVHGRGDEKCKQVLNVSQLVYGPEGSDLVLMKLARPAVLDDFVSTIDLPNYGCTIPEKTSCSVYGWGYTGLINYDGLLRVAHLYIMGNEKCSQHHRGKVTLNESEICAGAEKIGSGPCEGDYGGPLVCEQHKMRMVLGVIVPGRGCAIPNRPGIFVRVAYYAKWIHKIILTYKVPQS

Protein	factor XIIa (40 nM) conversion of ^125I-scHGF into its two chain form, SDS-PAGE/autoradiography, with or without PRO256 (PRO256 polypeptide)	conversion of ^125I-scHGF into its two chain form, factor XIIa 40 nM, SDS-PAGE/autoradiography [1]	conversion of scHGF into its two chain form, factor XIIa 20 nM, SDS-PAGE with autoradiography or Coomassie staining [1]	human serum (10%)-mediated conversion of ^125I-scHGF into its two chain form, SDS-PAGE/autoradiography, PRO256 at 1 µM (PRO256 polypeptide)
B1	In the presence or absence of PRO256, factor XIIa converts ^125I-scHGF into its two chain form, thereby indicating lack of inhibition by PRO256.	factor XIIa converts ^125I-scHGF into its two chain form	Both labelled and unlabelled HGF were converted identically, suggesting that the iodination of scHGF did not impair processing by its activators, such as factor XIIa.	–
B2	–	–	–	In the presence of the inhibitor PRO256 (at time intervals 0, 0.5 hr, 1 hr, 2 hr, and 4 hr), ^125I-sc-HGF is not converted two chain form as indicated by the top heavy band on the gel.
